Source: patent US20230050440A1 (Seagen, published 2023)

How the values were obtained:
[1] = target: T1, monomeric human TIGIT (Sino Biological 10917-H08H) (human, UniProt Q495A1 22-138, biotinylated in the MSD-SET assay); assay: MSD-SET solution equilibrium titration, biotinylated antigen at 50 pM
T1 construct: Bought protein; also called Human TIGIT monomer; Human TIGIT-His; not shown: His tag
T1 sequence: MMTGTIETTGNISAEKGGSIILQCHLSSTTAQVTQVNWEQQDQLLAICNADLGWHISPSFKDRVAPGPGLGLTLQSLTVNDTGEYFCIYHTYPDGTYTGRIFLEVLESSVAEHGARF

[2] = target: T1, monomeric human TIGIT (Sino Biological …); assay: BLI (ForteBio), IgG on sensor, monovalent
[3] = target: T2, human TIGIT expressed on cells (human, UniProt Q495A1 22-244); assay: flow cytometry on HEK 293 cells expressing the target, MFI over parental HEK 293;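 note: bound antibody detected with PE-labelled anti-human IgG, 15 min on ice. FOB equals median fluorescence on TIGIT-positive cells divided by that on target-negative cells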
T2 construct: HEK 293 cells stably expressing human TIGIT, primary human T cells or Jurkat effector cells; the cell is named under assay; also called Human TIGIT HEK
T2 sequence: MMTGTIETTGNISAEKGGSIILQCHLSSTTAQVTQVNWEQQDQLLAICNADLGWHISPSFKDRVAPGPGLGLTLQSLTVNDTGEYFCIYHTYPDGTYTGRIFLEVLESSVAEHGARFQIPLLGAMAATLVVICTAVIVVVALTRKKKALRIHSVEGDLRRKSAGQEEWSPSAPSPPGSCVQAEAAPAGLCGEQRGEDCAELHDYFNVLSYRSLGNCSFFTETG

[4] = target: T3, cynomolgus monkey TIGIT expressed on cells (cynomolgus monkey); assay: as above
T3 construct: HEK 293 cells stably expressing cynomolgus monkey TIGIT or cynomolgus T cells; also called Cyno TIGIT HEK
T3 sequence (chain, as listed by the source limits assumed): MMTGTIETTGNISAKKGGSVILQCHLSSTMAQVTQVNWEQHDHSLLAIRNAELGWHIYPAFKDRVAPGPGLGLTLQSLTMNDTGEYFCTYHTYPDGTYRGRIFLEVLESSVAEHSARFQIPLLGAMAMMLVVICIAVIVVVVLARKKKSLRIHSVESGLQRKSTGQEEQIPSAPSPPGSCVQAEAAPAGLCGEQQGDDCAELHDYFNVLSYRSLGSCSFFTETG

[5] = target: T4, cyno TIGIT-Fc (cynomolgus monkey); assay: BLI (ForteBio), IgG on sensor, avid
T4 construct: not shown: Fc part
T4 sequence (chain, as listed by the source limits assumed): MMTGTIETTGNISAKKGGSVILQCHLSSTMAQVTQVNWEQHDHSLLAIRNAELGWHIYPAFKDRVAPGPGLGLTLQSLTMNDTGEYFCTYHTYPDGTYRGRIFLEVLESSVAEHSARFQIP

B1: Clone 2C (antibody, V domains shown)
VH: EVQLVESGGGLVQPGGSLRLSCAASGFTFTDYYMDWVRQAPGKGLEWVGRTRNKVNSYYTEYAASVKGRFTISRDDSKNSLYLQMNSLKTEDTAVYYCARGQYYYGSDRRGYYYMDVWGQGTTVTVSS
VL: EIVLTQSPGTLSLSPGERATLSCRASQSVSSSYLAWYQQKPGQAPRLLIYGASSRATGIPDRFSGSGSGTDFTLTISRLEPEDFAVYYCQQAVPSPLTFGGGTKVEIK
Question: Which Kd [1] does the source give for B1 here?
Answer: The Kd was 0.016 nM.

Question: And the Kd [2]?
Answer: Its Kd is 0.518 nM.

Question: And the “FOB (Fold Over Background)” value [3]?
Answer: Its value is 193 fold.

Question: What about the “FOB (Fold Over Background)” value [4] of the same binder?
Answer: The value was 224 fold.

Question: What about the Kd [5] of the same binder?
Answer: Its Kd is 0.984 nM.

B2: Clone 13D (antibody, V domains shown)
VH: QVQLVQSGAEVKKPGSSVKVSCKASGGTFLSSAISWVRQAPGQGLEWMGSIIPYFGKANYAQKFQGRVTITADESTSTAYMELSSLRSEDTAVYYCARGPSEVKGILGYVWFDPWGQGTLVTVSS
VL: not shown
Question: With B2 as the binder, how does the Kd [1] read?
Answer: The Kd was 0.005 nM.

Question: And the Kd [2]?
Answer: Its Kd is 0.571 nM.

B3: Clone 13C (antibody, IgG1, V domains shown)
VH: QVQLVQSGAEVKKPGSSVKVSCKASGGTFLSSAISWVRQAPGQGLEWMGSIIPLFGKANYAQKFQGRVTITADESTSTAYMELSSLRSEDTAVYYCARGPSEVKGILGYVWFDPWGQGTLVTVSS
VL: not shown
Question: With B3 as the binder, how does the Kd [1] read?
Answer: Its Kd is 0.0086 nM.

Question: What about the Kd [2] of the same binder?
Answer: The Kd was 0.563 nM.

B4: Clone 13A (antibody, V domains shown)
VH: QVQLVQSGAEVKKPGSSVKVSCKASGGTFLSSAISWVRQAPGQGLEWMGSLIPYFGTANYAQKFQGRVTITADESTSTAYMELSSLRSEDTAVYYCARGPSEVGAILGYVWFDPWGQGTLVTVSS
VL: not shown
Question: For B4, which Kd [1] is on record?
Answer: The Kd was 0.025 nM.

Question: What about the Kd [2] of the same binder?
Answer: Its Kd is 0.627 nM.

B5: Clone 13B (antibody, V domains shown)
VH: QVQLVQSGAEVKKPGSSVKVSCKASGGTFSAWAISWVRQAPGQGLEWMGSIIPYFGKANYAQKFQGRVTITADESTSTAYMELSSLRSEDTAVYYCARGPSEVSGILGYVWFDPWGQGTLVTVSS
VL: not shown
Question: What does the source list for B5?
Answer: Kd [1]: 0.0053 nM; Kd [2]: 0.61 nM

B6: Clone 16C (antibody, V domains shown)
VH: QVQLVQSGAEVKKPGSSVKVSCKASGGTFREYAISWVRQAPGQGLEWMGGIHPIFGTARYAQKFQGRVTITADESTSTAYMELSSLRSEDTAVYYCTRQSTWHKLYGTDVWGQGTTVTVSS
VL: DIQMTQSPSSVSASVGDRVTITCRASQGISSWLAWYQQKPGKAPKLLIYAASSLQSGVPSRFSGSGSGTDFTLTISSLQPEDFATYYCQQGDSLPPTFGGGTKVEIK
Question: Which results are given for B6?
Answer: Kd [1]: 0.0063 nM; Kd [2]: 0.911 nM; FOB (Fold Over Background) [3]: 208 fold; FOB (Fold Over Background) [4]: 157 fold; Kd [5]: 4.25 nM

B7: Clone 16D (antibody, V domains shown)
VH: QVQLVQSGAEVKKPGSSVKVSCKASGGTFSDYPISWVRQAPGQGLEWMGGIIPIVGGANYAQKFQGRVTITADESTSTAYMELSSLRSEDTAVYYCTRQSTWHKLFGTDVWGQGTTVTVSS
VL: DIQMTQSPSSVSASVGDRVTITCRASQGISSWLAWYQQKPGKAPKLLIYAASSLQSGVPSRFSGSGSGTDFTLTISSLQPEDFATYYCQQGDSLPPTFGGGTKVEIK
Question: Which results are given for B7?
Answer: Kd [1]: 0.013 nM; Kd [2]: 0.596 nM; FOB (Fold Over Background) [3]: 199 fold; FOB (Fold Over Background) [4]: 241 fold; Kd [5]: 1.15 nM

B8: Clone 16E (antibody, V domains shown)
VH: QVQLVQSGAEVKKPGSSVKVSCKASGGTFSDYPISWVRQAPGQGLEWMGGIIPIVGGANYAQKFQGRVTITADESTSTAYMELSSLRSEDTAVYYCARQSTWHKVYGTDVWGQGTTVTVSS
VL: DIQMTQSPSSVSASVGDRVTITCRASQGISSWLAWYQQKPGKAPKLLIYAASSLQSGVPSRFSGSGSGTDFTLTISSLQPEDFATYYCQQGDSLPPTFGGGTKVEIK
Question: With B8 as the binder, how does the Kd [1] read?
Answer: Its Kd is 0.011 nM.

Question: And the Kd [2]?
Answer: The Kd was 0.778 nM.

Question: And the “FOB (Fold Over Background)” value [3]?
Answer: Its value is 195 fold.

Question: And the “FOB (Fold Over Background)” value [4]?
Answer: Its value is 186 fold.

Question: And the Kd [5]?
Answer: Its Kd is 1.36 nM.
